B1: hpt promoter 40 bp (dsDNA)
DNA 1: TTTTGTTTTCTGCATGATAACAAGTGTTAATGACGGAAAG
DNA 2: CTTTCCGTCATTAACACTTGTTATCATGCAGAAAACAAAA
B2: hly PrfA box 30 bp (dsDNA)
DNA 1: TTGAGGCATTAACATTTGTTAACGACGATA
DNA 2: TATCGTCGTTAACAAATGTTAATGCCTCAA
B3: actA promoter 40 bp (dsDNA)
DNA 1: AGTTGGGGTTAACTGATTAACAAATGTTAGAGAAAAATTA
DNA 2: TAATTTTTCTCTAACATTTGTTAATCAGTTAACCCCAACT
B4: hly promoter 40 bp (dsDNA)
DNA 1: CTTTTATGTTGAGGCATTAACATTTGTTAACGACGATAAA
DNA 2: TTTATCGTCGTTAACAAATGTTAATGCCTCAACATAAAAG

How the values were obtained:
PrfA L140H [1] = target: T1, PrfA L140H (Listeria monocytogenes, UniProt P22262 1-237, L140H); assay: SPR; conditions: protein: recombinant; tags: His6 removed by TEV, leaves N-terminal GA; chain copies: 2; label: 5'-biotin on strand 1; blunt
PrfA WT = PrfA WT (Listeria monocytogenes, UniProt P22262 1-237); assay: SPR; conditions: protein: recombinant; tags: His6-TEV vector pET His1a; chain copies: 2; label: 5'-biotin on strand 1; blunt
PrfA A218G [2] = target: T2, PrfA A218G (Listeria monocytogenes, UniProt P22262 1-237, A218G); assay: SPR; conditions: protein: recombinant; tags: His6 removed by TEV, leaves N-terminal GA; chain copies: 2; label: 5'-biotin on strand 1; blunt
PrfA L140F [3] = target: T3, PrfA L140F (Listeria monocytogenes, UniProt P22262 1-237, L140F); assay: SPR; conditions: protein: recombinant; tags: His6 removed by TEV, leaves N-terminal GA; chain copies: 2; label: 5'-biotin on strand 1; blunt
PrfA L140H [4] = target: T1, PrfA L140H; assay: crystal structure; PDB probably one of 6QWF/6QWH/6QWK/6QWM; assignment not in material; conditions: protein: recombinant; tags: His6 removed by TEV, leaves N-terminal GA; chain copies: 2; blunt
PrfA A218G [5] = target: T2, PrfA A218G; assay: as above; conditions: protein: recombinant; tags: His6 removed by TEV, leaves N-terminal GA; chain copies: 2; blunt
PrfA L140F [6] = target: T3, PrfA L140F; assay: as above; conditions: protein: recombinant; tags: His6 removed by TEV, leaves N-terminal GA; chain copies: 2; blunt

Row | Binder | Kd (PrfA L140H [1]) [nM] | Kd (PrfA WT) [nM] | Kd (PrfA A218G [2]) [nM] | Kd (PrfA L140F [3]) [nM] | binding result (PrfA L140H [4]) | binding result (PrfA A218G [5]) | binding result (PrfA L140F [6])
1 | B1 | 210 | 1040 | 55 | 270 | – | – | –
2 | B2 | – | – | – | – | binds | binds | binds
3 | B3 | 85 | 690 | 27 | 95 | – | – | –
4 | B4 | 10 | 110 | 4 | 15 | – | – | –

— article PMC7221254
